US20250243290A1
Where “and” joins values, the source holds several entries; their conditions need not be identical. Equal entries are not always repeated. Where two headings read alike, the source gives them in different places.

Columns and labels:
Assay in all cases: peptide-array ELISA [Con't]
CDQVETQA2…2TREQNRI2T2RPC = target: CDQVETQA2…2TREQNRI2T2RPC
[1] = target: …2KCAPLRK2…
CLSKQEG2RL2…22SK2C = target: CLSKQEG2RL2…22SK2C
…2SK2SPGQ = target: …2SK2SPGQ
[2] = target: CGWY2ALSKQEG2RL2CNASMDAV2TSTSPTRC
ALSKQEG2…2APGTFSN = target: ALSKQEG2…2APGTFSN
[3] = target: …2…
[4] = target: CGSR2…
[5] = target: EGCRL2…2…
E2LSCGSR2…2T2 = target: E2LSCGSR2…2T2
…2RLCQA2TREQNRI2T2RPC = target: …2RLCQA2TREQNRI2T2RPC
…2TSTSPTRC = target: …2TSTSPTRC
QNRI2…2RL = target: QNRI2…2RL
[6] = target: SCGSR2…
[7] = target: …2KP2…2…
…2…2TSTSPTRC [8] = target: …2…2TSTSPTRC
[9] = target: WNWVPE2…
LS2…2RPGW = target: LS2…2RPGW
[10] = target: PE2LS2…2…
…2RPGW [11] = target: …2RPGW
…2…2RPG = target: …2…2RPG
…2…2RPGW = target: …2…2RPGW
PE2LSCGSR2…2T = target: PE2LSCGSR2…2T
[12] = target: E2LS2…2…
[13] = target: DVV2…
CAPLRK2…2RLC = target: CAPLRK2…2RLC
CQA2TREQNRI2T2…2TSTSPTRC = target: CQA2TREQNRI2T2…2TSTSPTRC
NWVPE2…2 = target: NWVPE2…2
[14] = target: CG2RL2APLRK2RPGFCQA2TREQNRI2T2RPC
CG2RL2APLRK2…2RLC = target: CG2RL2APLRK2…2RLC
LSCGSR2…2T2 = target: LSCGSR2…2T2
[15] = target: Y2…2…
LS2…2TREQNRIC = target: LS2…2TREQNRIC
NRI2…2R = target: NRI2…2R
…2…2R = target: …2…2R
[16] = target: NWVPE2…
PE2LS2…2…2 = target: PE2LS2…2…2
…2RPGW [17] = target: …2RPGW; remark: listed apart in the source
[18] = target: …2AGGSGGL2…
LCAPLRK2…2APGTFSN = target: LCAPLRK2…2APGTFSN
E2LSCGSR2…2 = target: E2LSCGSR2…2
…2RPG = target: …2RPG
[19] = target: LWNWVPE2…
CDQVETQA2…2TSTSPTRC = target: CDQVETQA2…2TSTSPTRC
[20] = target: …2GGSGGL2…
2LSCGSR2…2 = target: 2LSCGSR2…2
E2LS2…2RPGW = target: E2LS2…2RPGW
QNRI2…2R = target: QNRI2…2R
…2…2TSTSPTRC [21] = target: …2…2TSTSPTRC; remark: listed apart in the source
PE2LS2…2RPG = target: PE2LS2…2RPG
LSCGSR2…2 = target: LSCGSR2…2
C2…22SK2SPGQHC = target: C2…22SK2SPGQHC
WNWVPE2…2T2 = target: WNWVPE2…2T2

Sequence of NWVPE2… (peptide, as listed by the source): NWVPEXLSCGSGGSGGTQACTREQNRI
Sequence of …2… (peptide, as listed by the source): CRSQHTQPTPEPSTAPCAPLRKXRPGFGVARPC
Sequence of …2RPG (peptide, as listed by the source): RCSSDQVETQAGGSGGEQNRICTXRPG
Sequence of WNWVPE2… (peptide, as listed by the source): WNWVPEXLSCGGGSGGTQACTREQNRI
Sequence of LWNWVPE2… (peptide, as listed by the source): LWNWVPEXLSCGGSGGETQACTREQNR
Sequence of …2TSTSPTRC (peptide, as listed by the source): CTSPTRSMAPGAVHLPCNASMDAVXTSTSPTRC
Sequence of SCGSR2… (peptide, as listed by the source): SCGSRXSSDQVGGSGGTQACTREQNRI
Sequence of CGSR2… (peptide, as listed by the source): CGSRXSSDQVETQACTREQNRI

Question: With agonistic TNFR2 antibody MR2-1 as the substance, how does the Raw luminescence data (CDQVETQA2…2TREQNRI2T2RPC) read?
Answer: 154

Question: What about the Raw luminescence data [1] of the same substance?
Answer: 151

Question: What about the Raw luminescence data (CLSKQEG2RL2…22SK2C) of the same substance?
Answer: 156

Question: And the Raw luminescence data (…2SK2SPGQ)?
Answer: 156 and 153

Question: What about the Raw luminescence data [2] of the same substance?
Answer: 156

Question: What about the Raw luminescence data (ALSKQEG2…2APGTFSN) of the same substance?
Answer: 151

Question: And the Raw luminescence data [3]?
Answer: 155

Question: And the Raw luminescence data [4]?
Answer: 153

Question: What about the Raw luminescence data [5] of the same substance?
Answer: 155

Question: What about the Raw luminescence data (E2LSCGSR2…2T2) of the same substance?
Answer: 153

Question: And the Raw luminescence data (…2RLCQA2TREQNRI2T2RPC)?
Answer: 150

Question: And the Raw luminescence data (…2TSTSPTRC)?
Answer: 154

Question: And the Raw luminescence data (QNRI2…2RL)?
Answer: 151

Question: What about the Raw luminescence data [6] of the same substance?
Answer: 155

Question: What about the Raw luminescence data [7] of the same substance?
Answer: 150

Question: And the Raw luminescence data (…2…2TSTSPTRC [8])?
Answer: 156

Question: What about the Raw luminescence data [9] of the same substance?
Answer: 291

Question: And the Raw luminescence data (LS2…2RPGW)?
Answer: 299

Question: And the Raw luminescence data [10]?
Answer: 317

Question: And the Raw luminescence data (…2RPGW [11])?
Answer: 308

Question: What about the Raw luminescence data (…2…2RPG) of the same substance?
Answer: 304

Question: What about the Raw luminescence data (…2…2RPGW) of the same substance?
Answer: 270

Question: And the Raw luminescence data (PE2LSCGSR2…2T)?
Answer: 275

Question: And the Raw luminescence data [12]?
Answer: 233

Question: What about the Raw luminescence data [13] of the same substance?
Answer: 243

Question: And the Raw luminescence data (CAPLRK2…2RLC)?
Answer: 227

Question: And the Raw luminescence data (CQA2TREQNRI2T2…2TSTSPTRC)?
Answer: 274

Question: What about the Raw luminescence data (NWVPE2…2) of the same substance?
Answer: 258

Question: What about the Raw luminescence data [14] of the same substance?
Answer: 244

Question: And the Raw luminescence data (CG2RL2APLRK2…2RLC)?
Answer: 252

Question: And the Raw luminescence data (LSCGSR2…2T2)?
Answer: 226

Question: And the Raw luminescence data [15]?
Answer: 245

Question: What about the Raw luminescence data (LS2…2TREQNRIC) of the same substance?
Answer: 232

Question: And the Raw luminescence data (NRI2…2R)?
Answer: 229

Question: And the Raw luminescence data (…2…2R)?
Answer: 225

Question: What about the Raw luminescence data [16] of the same substance?
Answer: 229

Question: What about the Raw luminescence data (PE2LS2…2…2) of the same substance?
Answer: 262

Question: And the Raw luminescence data (…2RPGW [17])?
Answer: 276 and 272

Question: What about the Raw luminescence data [18] of the same substance?
Answer: 254

Question: And the Raw luminescence data (LCAPLRK2…2APGTFSN)?
Answer: 262

Question: And the Raw luminescence data (E2LSCGSR2…2)?
Answer: 262

Question: What about the Raw luminescence data (…2RPG) of the same substance?
Answer: 257

Question: What about the Raw luminescence data [19] of the same substance?
Answer: 260

Question: And the Raw luminescence data (CDQVETQA2…2TSTSPTRC)?
Answer: 251

Question: And the Raw luminescence data [20]?
Answer: 250

Question: What about the Raw luminescence data (2LSCGSR2…2) of the same substance?
Answer: 251

Question: What about the Raw luminescence data (E2LS2…2RPGW) of the same substance?
Answer: 233

Question: What about the Raw luminescence data (QNRI2…2R) of the same substance?
Answer: 242

Question: What about the Raw luminescence data (…2…2TSTSPTRC [21]) of the same substance?
Answer: 267

Question: What about the Raw luminescence data (PE2LS2…2RPG) of the same substance?
Answer: 277

Question: What about the Raw luminescence data (LSCGSR2…2) of the same substance?
Answer: 274

Question: And the Raw luminescence data (C2…22SK2SPGQHC)?
Answer: 263

Question: And the Raw luminescence data (WNWVPE2…2T2)?
Answer: 247
